Our source for the Kd values is PMC2965030 (2009).

The Kd is a measure of binding affinity in units of concentration. A lower Kd goes with higher affinity.

In this assay the target is t-PA (Homo sapiens, UniProt P00750). Description: SPR. (Surface plasmon resonance follows binding to a sensor surface in real time, without labels.)
Chain of t-PA (P00750 36-562): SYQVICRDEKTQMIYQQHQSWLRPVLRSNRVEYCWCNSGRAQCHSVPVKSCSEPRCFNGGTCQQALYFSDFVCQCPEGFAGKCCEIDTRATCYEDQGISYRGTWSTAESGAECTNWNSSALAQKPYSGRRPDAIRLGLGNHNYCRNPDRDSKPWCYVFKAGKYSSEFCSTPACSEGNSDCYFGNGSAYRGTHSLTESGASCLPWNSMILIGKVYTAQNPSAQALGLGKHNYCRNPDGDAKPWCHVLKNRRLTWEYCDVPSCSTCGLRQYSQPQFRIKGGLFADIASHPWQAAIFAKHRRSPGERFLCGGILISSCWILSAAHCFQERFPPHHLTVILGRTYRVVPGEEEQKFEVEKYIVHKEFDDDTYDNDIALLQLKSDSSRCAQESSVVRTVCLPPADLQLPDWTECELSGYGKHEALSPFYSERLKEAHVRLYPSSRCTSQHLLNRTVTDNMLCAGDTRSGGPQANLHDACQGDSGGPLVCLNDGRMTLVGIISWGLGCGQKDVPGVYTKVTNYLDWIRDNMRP

B1: β2-glycoprotein I (protein)
chain: GRTCPKPDDLPFSTVVPLKTFYEPGEEITYSCKPGYVSRGGMRKFICPLTGLWPINTLKCTPRVCPFAGILENGAVRYTTFEYPNTISFSCNTGFYLNGADSAKCTEEGKWSPELPVCAPIICPPPSIPTFATLRVYKPSAGNNSLYRDTAVFECLPQHAMFGNDTITCTTHGNWTKLPECREVKCPFPSRPDNGFVNYPAKPTLYYKDKATFGCHDGYSLDGPEEIECTKLGNWSAMPSCKASCKVPVKKATVVYQGERVKIQEKFKNGMLHGDKVSFFCKNKEKKCSYTEDAQCIDGTIEVPKCFKEHSSLAFWKTDASDVKPC
For B1, the Kd turned out to be 20 nM.
